The results in this text go back to patent US20160245821A1.

The target of assay [1] is WD Repeat Containing Protein 5 (WDR5) (UniProt P61964). Nature of the assay: thermal shift.
For assay [2] the target is unchanged. Nature of the assay: fluorescent polarization (FP) assay.
Assay [3] has the same target. Description: ITC. For orientation: ITC needs no label: the signal is the heat of the interaction.

A word on the Kd: it is the concentration at which binding is half-saturated. For “Peptide Substrate (WIN peptide, pentapeptide fragment of the WDR5 binding partner MLL1 protein)”, the ΔTm*(Thermal shift) in assay [1] came out at 2 ° C. Moreover, the Kd in assay [2] and in assay [3] was 1300 nM throughout.
